Laboratory results: patent US20210230266A1 (SINGAPORE HEALTH SERVICES PTE, published 2021)
Changes are numbered by the printed parent chain.

T1: Human IL-11 (human, UniProt P20809 22-199)
T1 construct: Recombinant human IL-11 (GenScript Cat. No. Z03108-1) or IL-11 secreted by human cells; the mature form is said to have 178 residues; also called recombinant human IL-11; endogenously produced IL-11
T1 sequence: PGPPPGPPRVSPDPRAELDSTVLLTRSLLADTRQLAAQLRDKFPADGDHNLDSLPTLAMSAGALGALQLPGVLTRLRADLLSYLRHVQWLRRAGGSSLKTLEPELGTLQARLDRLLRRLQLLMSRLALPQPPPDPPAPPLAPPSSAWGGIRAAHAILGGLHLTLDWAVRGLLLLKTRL

T2: Mouse IL-11 (mouse, UniProt P47873 22-199, limits assumed)
T2 construct: also called murine IL-11; recombinant murine IL-11
T2 sequence (looked up): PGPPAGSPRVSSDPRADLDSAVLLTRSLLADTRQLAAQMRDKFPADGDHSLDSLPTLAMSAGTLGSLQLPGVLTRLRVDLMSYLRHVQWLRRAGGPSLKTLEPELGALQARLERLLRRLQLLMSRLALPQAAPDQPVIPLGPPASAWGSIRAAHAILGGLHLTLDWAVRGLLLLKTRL

B1: YU112-B06 (antibody)
chain: QVQLVESGGGVVQPGRSLRLSCAASGFTFSSYGMHWVRQAPGKGLEWVAVISYDGSNKYYADSVKGRFTISRDNSKNTLYLQMNSLRAEDTAVYYCAKIGATDPLDYWGQGTLVTVSSGSASAPKLEEGEFSEARVQSALTQPASVSGSPGQSITISCTGTSSDVGGYNYVSWYQQHPGKAPKLMIYDVSNRPSGVSNRFSGSKSGNTASLTIFGLQAEDEADYYCSSYTSSSSWVFGGGTKLTVL
B2: YU112-F05 (antibody)
chain: EVQLVQSGGGVVQPGRSLRLSCAASGFTFGSYGMHWVRQAPGKGLEWVAVISYDGSNKYYADSVKGRFTISRDNSKNTLYLQMNSLRAEDTAVYYCAKIGATDPLDYWGQGTLVTVSSGSASAPKLEEGEFSEARVQSALTQPRSVSGSPGQSVTISCTGTSSDVGGYNYVSWYQQHPGKAPKLIIYDVNNRPSGVSNRFSASKSGNTASLTISGLQAEDEADYYCNSYTSGSTWVFGGGTKLTVL
B3: YU112-C03 (antibody)
chain: QVQLVESGGGVVQPGRSLRLSCAASGFTFSSYGMHWVRQAPGKGLEWVAVISYDGSNKYYADSVKGRFTISRDNSKNTLYLQMNSLRAEDTAVYYCAKGGKSYYGFDYWGQGTLVTVSSGSASAPKLEEGEFSEARVDSVMTQSPSSLSASVGDRVTITCRASQAINSYLNWYQQKPGKAPKLLIYAASSLQSGVPSRFSGSGSGTDFTLTISGLQPEDFATYYCQQSYSTPSWTFGQGTKVEIK
B4: YU112-A07 (antibody)
chain: QVQLVESGGGVVQPGRSLRLSCAASGFTFSSYGMHWVRQAPGKGLEWVAVISYDGSNKYYTDSVKGRFTISRDNSKNTLYLQMNSLRAEDTAVYYCAKIGATDPLDYWGQGTLVTVSSGSASAPKLEEGEFSEARVQSALTQPRSVSGSPGQSVTISCTGTISDVGGYNYVSWYQQHPGKAPKLMIYDVTKRPSGVPDRFSGSKSGNTASLTISGLQAEDEAGYYCSSYAGSYTWVFGGGTELTVL
B5: YU112-D08 (antibody)
chain: B4 chain with T61A, K65E
B6: YU112-C05 (antibody)
chain: EVQLVESGGGVVQPGRSLRLSCAASGFTFSSYAMHWVRQAPGKGLEWVAVISYDGSNKYYADSVKGRFTISRDNSKNTLYLQMNSLRAEDTAVYYCARIMGYDYGDYDVVDYWGQGTLVTVSSGSASAPKLEEGEFSEARVQSALTQPRSVSGSPGQSVTISCTGTISDVGGYNYVSWYQQHPGKAPKLMIYDVTKRPSGVPDRFSGSKSGNTASLTISGLQAEDEAGYYCSSYAGSYTWVFGGGTELTVL

Molecular target: T1, Human IL-11
Assay: ELISA
Experimental: (§1) The soluble scFv were produced by recombinant expression in E. coli, and analysed for their ability to bind to human IL-11 and murine IL-11 by ELISA. Briefly, the respective antigen was coated to wells of an ELISA plate, the cell culture supernatant containing the respective scFv was added at a 1:2 dilution, and binding was detected.

Row | Binder | hIL11 - average signal
1 | B1 | 0.756
2 | B2 | 0.863
3 | B3 | 0.566
4 | B4 | 0.438
5 | B5 | 0.418
6 | B6 | 0.458

Molecular target: T2, Mouse IL-11
Assay: ELISA
Experimental: as §1

Row | Binder | mIL11 - average signal
7 | B1 | 0.622
8 | B2 | 0.601
9 | B3 | 0.445
10 | B4 | 0.612
11 | B5 | 0.723
12 | B6 | 0.685

Molecular target: T1, Human IL-11
Assay: cell-based or functional assay

Row | Binder | MMP2 production, Experiment 1 (human atrial fibroblasts + TGFB1) [ng/mL] | MMP2 production, Experiment 2 (human atrial fibroblasts + TGFB1) [ng/mL]
13 | B1 | 49.7 | 43.9
14 | B2 | 53.9 | 48.5
15 | B3 | 57.6 | 53.3
16 | B4 | 50.7 | 45
17 | B5 | 50.3 | 42.5
18 | B6 | 55.2 | 50.1

Molecular target: T1, Human IL-11
Assay: ELISA on coated recombinant human IL-11 (100 ng/well), scFv-Fc
Experimental: The light chain shuffled anti-IL-11 antibodies were analysed to determine the EC50 for binding to human IL-11 by ELISA according to standard methods. Briefly, wells of microtiter plates were coated with recombinant human IL-11 (100 ng/well), scFv-Fc comprising the VH and VL domains of the clones were added in a dilution series and antibody binding was detected using a polyclonal antibody detection system.

Row | Binder | EC50 [µg/mL]
19 | B1 | 0.02
20 | B2 | 0.04
21 | B3 | 0.017
22 | B4 | 0.025
23 | B5 | 0.018
24 | B6 | 0.012
